Experimental data taken from patent publication US20230002480A1.

Experiments:
Assay in all cases: cell-based or functional assay
[1] = target: HIV-1 Env of pseudovirus X1254_c3 (clade G) (HIV-1)
[2] = target: HIV-1 Env of pseudovirus Q842.d12 (clade A) (HIV-1)
[3] = target: HIV-1 Env of pseudovirus CAP45.2.00.G3 (clade C) (HIV-1)
[4] = target: HIV-1 Env of pseudovirus MS208A1 (HIV-1)
[5] = target: HIV-1 Env of pseudovirus CNE8 (clade CRF01_AE) (HIV-1)
[6] = target: HIV-1 Env of pseudovirus 1394C9G1 (Rev-) (HIV-1)
[7] = target: MuLV pseudovirus (Neg. Control) (MuLV)
[8] = target: HIV-1 Env pseudovirus 928-28 (HIV-1)
[9] = target: HIV-1 Env pseudovirus CNE5 (HIV-1)

PG9 (antibody)
IC50, titer in TZM.bl cells [1]: 0.065 µg/mL | IC80, titer in TZM.bl cells [1]: 0.304 µg/mL

N49P18.1 (antibody)
IC50 [2]: 3.04 µg/mL | IC80 [2]: 8.13 µg/mL | MPI [2]: 100 | IC50 [3]: 5.14 µg/mL | IC80 [3]: 33.1 µg/mL | MPI [3]: 88

N49P7.1 (antibody)
neutralization IC50 [4]: 0.12 µg/mL | neutralization IC80 [4]: 0.431 µg/mL | neutralization MPI [4]: 100

10-1074 (antibody)
IC50, titer in TZM.bl cells [5]: > 50 µg/mL | IC80, titer in TZM.bl cells [5]: > 50 µg/mL | IC50, titer in TZM.bl cells [1]: 0.089 µg/mL | IC80, titer in TZM.bl cells [1]: 0.297 µg/mL

VRC01 (antibody)
IC50, titer in TZM.bl cells [6]: 0.36 µg/mL | IC80, titer in TZM.bl cells [6]: 1.28 µg/mL

N49P9 (antibody)
IC50 [7]: > 50 µg/mL | IC80 [7]: > 50 µg/mL | MPI [7]: 13 | IC50 [8]: 0.094 µg/mL | IC80 [8]: 0.339 µg/mL | MPI [8]: 100

PG16 (antibody)
IC50, titer in TZM.bl cells [1]: 0.023 µg/mL | IC80, titer in TZM.bl cells [1]: 0.218 µg/mL

N49P11 (antibody)
IC50 [2]: 0.027 µg/mL | IC80 [2]: 0.103 µg/mL | MPI [2]: 100 | IC50 [3]: 5.25 µg/mL | IC80 [3]: 24 µg/mL | MPI [3]: 100

10E8 (antibody)
IC50, titer in TZM.bl cells [1]: 4.75 µg/mL | IC80, titer in TZM.bl cells [1]: > 10 µg/mL

N49P7.2 (antibody)
IC50 [2]: 0.045 µg/mL | IC80 [2]: 0.2 µg/mL | MPI [2]: 100 | IC50 [3]: 0.162 µg/mL | IC80 [3]: 2.49 µg/mL | MPI [3]: 95

N49P19 (antibody)
IC50 [7]: > 50 µg/mL | IC80 [7]: > 50 µg/mL | MPI [7]: 0 | IC50 [8]: 2.73 µg/mL | IC80 [8]: 9.63 µg/mL | MPI [8]: 97 | IC50 [9]: 0.748 µg/mL | IC80 [9]: 3.29 µg/mL | MPI [9]: 100

N49P7 (antibody)
neutralization IC50 [4]: 0.12 µg/mL | neutralization IC80 [4]: 0.479 µg/mL | neutralization MPI [4]: 100

N49P9.1 (antibody)
IC50 [8]: 0.163 µg/mL | IC80 [8]: 0.695 µg/mL | MPI [8]: 100 | IC50 [9]: 0.183 µg/mL | IC80 [9]: 0.641 µg/mL | MPI [9]: 100
